Our source for the binding result and Mean binding response values is US20230235013A1 (MABSOLVE, published 2023).

The target of experiment [1] is T1, human FcγRIIIB (NA2 allotype, Sino Biological Cat. No. 11046-H08H) (human, UniProt O75015 17-200).
T1 construct: bought; also called human FcγRIIIb NA2 allele
Briefly: SPR, captured His-receptor. For orientation: In SPR one partner is held on a chip, and binding of the other changes the refractive index at the surface.

Experiment [2] has as its target T2, human FcγRIIA (R131, Sino Biological Cat. No. 10374-H08H) (human, UniProt P12318 34-218).
T2 construct: bought; also called human FcγRIIa R131 allele; FcγRII allele R131
T2 sequence (looked up): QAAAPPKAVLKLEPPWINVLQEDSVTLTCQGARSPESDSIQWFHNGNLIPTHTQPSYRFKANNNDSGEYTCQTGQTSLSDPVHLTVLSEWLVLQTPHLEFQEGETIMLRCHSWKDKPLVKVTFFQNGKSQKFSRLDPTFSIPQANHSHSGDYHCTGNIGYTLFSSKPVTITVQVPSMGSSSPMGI
Briefly: SPR, captured His-receptor.

Experiment [3] addresses T3, Histidine-tagged recombinant human FcγRI (CD64) (human, UniProt P12314 16-288).
T3 construct: bought; also called Sino Biological Cat. No. 12056-H08H
Kind of experiment: SPR, captured His-receptor.

The target in experiment [4] is T3, Histidine-tagged recombinant human …. Kind of experiment: SPR, culture supernatant, captured His-FcγRI.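 Further: biacore T200 SPR at 25 °C, anti-His capture, supernatants of HEK293 cells expressing IgG1 Fc variants injected 1 min, reference-subtracted response read 55 s after injection start.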

B1: anti-CD20 mouse IgG2a L234Q/L235S/G236R (antibody)
heavy: QVQLQQPGAELVKPGASVKMSCKASGYTFTSYNMHWVKQTPGRGLEWIGAIYPGNGDTSYNQKFKGKATLTADKSSSTAYMQLSSLTSEDSAVYYCARSTYYGGDWYFNVWGAGTTVTVSSAKTTAPSVYPLAPVCGDTTGSSVTLGCLVKGYFPEPVTLTWNSGSLSSGVHTFPAVLQSDLYTLSSSVTVTSSTWPSQSITCNVAHPASSTKVDKKIEPRGPTIKPCPPCKCPAPNQSRGPSVFIFPPKIKDVLMISLSPIVTCVVVDVSEDDPDVQISWFVNNVEVHTAQTQTHREDYNSTLRVVSALPIQHQDWMSGKEFKCKVNNKDLPAPIERTISKPKGSVRAPQVYVLPPPEEEMTKKQVTLTCMVTDFMPEDIYVEWTNNGKTELNYKNTEPVLDSDGSYFMYSKLRVEKKNWVERNSYSCSVVHEGLHNHHTTKSFSRTPGK
light: QIVLSQSPAILSASPGEKVTMTCRASSSVSYIHWFQQKPGSSPKPWIYATSNLASGVPVRFSGSGSGTSYSLTISRVEAEDAATYYCQQWTSNPPTFGGGTKLEIKRADAAPTVSIFPPSSEQLTSGGASVVCFLNNFYPKDINVKWKIDGSERQNGVLNSWTDQDSKDSTYSMSSTLTLTKDEYERHNSYTCEATHKTSTSPIVKSFNRNEC
notes: copies: 2 + 2
As for B1, the binding result in experiment [1], in experiment [2] and in experiment [3] was “no binding (tested: 100 µg/mL)” each time.

B2: anti-CD20 human IgG1 L234Q/L235S/G236R (antibody)
heavy: QVQLQQPGAELVKPGASVKMSCKASGYTFTSYNMHWVKQTPGRGLEWIGAIYPGNGDTSYNQKFKGKATLTADKSSSTAYMQLSSLTSEDSAVYYCARSTYYGGDWYFNVWGAGTTVTVSSASTKGPSVFPLAPSSKSTSGGTAALGCLVKDYFPEPVTVSWNSGALTSGVHTFPAVLQSSGLYSLSSVVTVPSSSLGTQTYICNVNHKPSNTKVDKKVEPKSCDKTHTCPPCPAPEQSRGPSVFLFPPKPKDTLMISRTPEVTCVVVDVSHEDPEVKFNWYVDGVEVHNAKTKPREEQYNSTYRVVSVLTVLHQDWLNGKEYKCKVSNKALPAPIEKTISKAKGQPREPQVYTLPPSRDELTKNQVSLTCLVKGFYPSDIAVEWESNGQPENNYKTTPPVLDSDGSFFLYSKLTVDKSRWQQGNVFSCSVMHEALHNHYTQKSLSLSPGK
light: QIVLSQSPAILSASPGEKVTMTCRASSSVSYIHWFQQKPGSSPKPWIYATSNLASGVPVRFSGSGSGTSYSLTISRVEAEDAATYYCQQWTSNPPTFGGGTKLEIKRTVAAPSVFIFPPSDEQLKSGTASVVCLLNNFYPREAKVQWKVDNALQSGNSQESVTEQDSKDSTYSLSSTLTLSKADYEKHKVYACEVTHQGLSSPVTKSFNRGEC
notes: also called 10.77; copies: 2 + 2
B2: the Mean binding response in experiment [4] is 11.9 RU. In addition, the binding result in experiment [1] and in experiment [2] was “no binding (tested: 100 µg/mL)” each time.

B3: anti-CD20 human IgG2 L234Q/L235S (antibody)
heavy: QVQLQQPGAELVKPGASVKMSCKASGYTFTSYNMHWVKQTPGRGLEWIGAIYPGNGDTSYNQKFKGKATLTADKSSSTAYMQLSSLTSEDSAVYYCARSTYYGGDWYFNVWGAGTTVTVSSASTKGPSVFPLAPCSRSTSESTAALGCLVKDYFPEPVTVSWNSGALTSGVHTFPAVLQSSGLYSLSSVVTVPSSNFGTQTYTCNVDHKPSNTKVDKTVERKCCVECPPCPAPPQSGPSVFLFPPKPKDTLMISRTPEVTCVVVDVSHEDPEVQFNWYVDGVEVHNAKTKPREEQFNSTFRVVSVLTVVHQDWLNGKEYKCKVSNKGLPAPIEKTISKTKGQPREPQVYTLPPSREEMTKNQVSLTCLVKGFYPSDIAVEWESNGQPENNYKTTPPMLDSDGSFFLYSKLTVDKSRWQQGNVFSCSVMHEALHNHYTQKSLSLSPGK
light: QIVLSQSPAILSASPGEKVTMTCRASSSVSYIHWFQQKPGSSPKPWIYATSNLASGVPVRFSGSGSGTSYSLTISRVEAEDAATYYCQQWTSNPPTFGGGTKLEIKRTVAAPSVFIFPPSDEQLKSGTASVVCLLNNFYPREAKVQWKVDNALQSGNSQESVTEQDSKDSTYSLSSTLTLSKADYEKHKVYACEVTHQGLSSPVTKSFNRGEC
notes: also called 11.144; copies: 2 + 2
Consider B3, for which the binding result in experiment [1] is “no binding (tested: 100 µg/mL)”; in experiment [2], “no binding (tested: 100 µg/mL)”; in experiment [3], “binds”.

B4: anti-CD20 human IgG4 L234Q/L235S/G236R (with S228P) (antibody)
heavy: QVQLQQPGAELVKPGASVKMSCKASGYTFTSYNMHWVKQTPGRGLEWIGAIYPGNGDTSYNQKFKGKATLTADKSSSTAYMQLSSLTSEDSAVYYCARSTYYGGDWYFNVWGAGTTVTVSSASTKGPSVFPLAPCSRSTSESTAALGCLVKDYFPEPVTVSWNSGALTSGVHTFPAVLQSSGLYSLSSVVTVPSSSLGTKTYTCNVDHKPSNTKVDKRVESKYGPPCPPCPAPEQSRGPSVFLFPPKPKDTLMISRTPEVTCVVVDVSQEDPEVQFNWYVDGVEVHNAKTKPREEQFNSTYRVVSVLTVLHQDWLNGKEYKCKVSNKGLPSSIEKTISKAKGQPREPQVYTLPPSQEEMTKNQVSLTCLVKGFYPSDIAVEWESNGQPENNYKTTPPVLDSDGSFFLYSRLTVDKSRWQEGNVFSCSVMHEALHNHYTQKSLSLSLGK
light: QIVLSQSPAILSASPGEKVTMTCRASSSVSYIHWFQQKPGSSPKPWIYATSNLASGVPVRFSGSGSGTSYSLTISRVEAEDAATYYCQQWTSNPPTFGGGTKLEIKRTVAAPSVFIFPPSDEQLKSGTASVVCLLNNFYPREAKVQWKVDNALQSGNSQESVTEQDSKDSTYSLSSTLTLSKADYEKHKVYACEVTHQGLSSPVTKSFNRGEC
notes: copies: 2 + 2
Consider B4, for which the binding result in experiment [1], in experiment [2] and in experiment [3] was “no binding (tested: 100 µg/mL)” throughout.

B5: anti-CD20 human IgG1 L234S/L235V/G236R (antibody)
heavy: QVQLQQPGAELVKPGASVKMSCKASGYTFTSYNMHWVKQTPGRGLEWIGAIYPGNGDTSYNQKFKGKATLTADKSSSTAYMQLSSLTSEDSAVYYCARSTYYGGDWYFNVWGAGTTVTVSSASTKGPSVFPLAPSSKSTSGGTAALGCLVKDYFPEPVTVSWNSGALTSGVHTFPAVLQSSGLYSLSSVVTVPSSSLGTQTYICNVNHKPSNTKVDKKVEPKSCDKTHTCPPCPAPESVRGPSVFLFPPKPKDTLMISRTPEVTCVVVDVSHEDPEVKFNWYVDGVEVHNAKTKPREEQYNSTYRVVSVLTVLHQDWLNGKEYKCKVSNKALPAPIEKTISKAKGQPREPQVYTLPPSRDELTKNQVSLTCLVKGFYPSDIAVEWESNGQPENNYKTTPPVLDSDGSFFLYSKLTVDKSRWQQGNVFSCSVMHEALHNHYTQKSLSLSPGK
light: QIVLSQSPAILSASPGEKVTMTCRASSSVSYIHWFQQKPGSSPKPWIYATSNLASGVPVRFSGSGSGTSYSLTISRVEAEDAATYYCQQWTSNPPTFGGGTKLEIKRTVAAPSVFIFPPSDEQLKSGTASVVCLLNNFYPREAKVQWKVDNALQSGNSQESVTEQDSKDSTYSLSSTLTLSKADYEKHKVYACEVTHQGLSSPVTKSFNRGEC
notes: also called 2-53; copies: 2 + 2
Consider B5, for which the binding result in experiment [1], in experiment [2] and in experiment [3] was “no binding (tested: 100 µg/mL)” throughout.

B6: anti-CD20 human IgG1 L234Q/L235S/G236R/M252Y/S254T/T256E (antibody)
heavy: QVQLQQPGAELVKPGASVKMSCKASGYTFTSYNMHWVKQTPGRGLEWIGAIYPGNGDTSYNQKFKGKATLTADKSSSTAYMQLSSLTSEDSAVYYCARSTYYGGDWYFNVWGAGTTVTVSSASTKGPSVFPLAPSSKSTSGGTAALGCLVKDYFPEPVTVSWNSGALTSGVHTFPAVLQSSGLYSLSSVVTVPSSSLGTQTYICNVNHKPSNTKVDKKVEPKSCDKTHTCPPCPAPEQSRGPSVFLFPPKPKDTLYITREPEVTCVVVDVSHEDPEVKFNWYVDGVEVHNAKTKPREEQYNSTYRVVSVLTVLHQDWLNGKEYKCKVSNKALPAPIEKTISKAKGQPREPQVYTLPPSRDELTKNQVSLTCLVKGFYPSDIAVEWESNGQPENNYKTTPPVLDSDGSFFLYSKLTVDKSRWQQGNVFSCSVMHEALHNHYTQKSLSLSPGK
light: QIVLSQSPAILSASPGEKVTMTCRASSSVSYIHWFQQKPGSSPKPWIYATSNLASGVPVRFSGSGSGTSYSLTISRVEAEDAATYYCQQWTSNPPTFGGGTKLEIKRTVAAPSVFIFPPSDEQLKSGTASVVCLLNNFYPREAKVQWKVDNALQSGNSQESVTEQDSKDSTYSLSSTLTLSKADYEKHKVYACEVTHQGLSSPVTKSFNRGEC
notes: also called 10.145; copies: 2 + 2
On to B6, for which the binding result in experiment [1], in experiment [2] and in experiment [3] was “no binding (tested: 100 µg/mL)” each time.

B7: anti-CD20 human IgG1 L234Q/L235S/G236R/T250Q/M428L (antibody)
heavy: QVQLQQPGAELVKPGASVKMSCKASGYTFTSYNMHWVKQTPGRGLEWIGAIYPGNGDTSYNQKFKGKATLTADKSSSTAYMQLSSLTSEDSAVYYCARSTYYGGDWYFNVWGAGTTVTVSSASTKGPSVFPLAPSSKSTSGGTAALGCLVKDYFPEPVTVSWNSGALTSGVHTFPAVLQSSGLYSLSSVVTVPSSSLGTQTYICNVNHKPSNTKVDKKVEPKSCDKTHTCPPCPAPEQSRGPSVFLFPPKPKDQLMISRTPEVTCVVVDVSHEDPEVKFNWYVDGVEVHNAKTKPREEQYNSTYRVVSVLTVLHQDWLNGKEYKCKVSNKALPAPIEKTISKAKGQPREPQVYTLPPSRDELTKNQVSLTCLVKGFYPSDIAVEWESNGQPENNYKTTPPVLDSDGSFFLYSKLTVDKSRWQQGNVFSCSVLHEALHNHYTQKSLSLSPGK
light: QIVLSQSPAILSASPGEKVTMTCRASSSVSYIHWFQQKPGSSPKPWIYATSNLASGVPVRFSGSGSGTSYSLTISRVEAEDAATYYCQQWTSNPPTFGGGTKLEIKRTVAAPSVFIFPPSDEQLKSGTASVVCLLNNFYPREAKVQWKVDNALQSGNSQESVTEQDSKDSTYSLSSTLTLSKADYEKHKVYACEVTHQGLSSPVTKSFNRGEC
notes: also called 10.146; copies: 2 + 2
On to B7, for which the binding result in experiment [1], in experiment [2] and in experiment [3] was “no binding (tested: 100 µg/mL)” in each case.
